Test results from patent US20240425572A1 (REGENXBIO, published 2024).

Molecular target: T1, fragment of the LEM peptide having the amino acid sequence of LEMPSSLMLEVP (SEQ ID NO: 2)
T1 peptide: LEMPSSLMLEVP
Test: MSD binding assay (format for the fragment not detailed)
Experimental: LEM peptide specific rabbit polyclonal and monoclonal antibodies were produced using standard laboratory technologies. Binding affinity of the antibodies was assessed using MSD experiment performed according to the manufacturer's protocols. MSD plates were coated with 1 mg/ml of peptide in PBS and blocked with casein in PBS. Anti-rabbit sulfo-tagged antibody was used as the detection agent. Antibody binding specificity was assessed using control reactions that included the target peptide to inhibit binding. […] None of the antibodies tested can bind to a fragment of the LEM peptide having the amino acid sequence of […] (SEQ ID NO: 2).

binding result: no binding
B1: 130D2-1 (antibody, V domains shown)
VH: QSLAESGGRLVTPGTPLTLTCTVSGVDLSYYPMTWVRQAPGKGLEYIGIILHNGTSCYARWARGRFTISKTSTTVELRITSPTTEDTATYFCARASVASIVGSSDIWGPGTLVTVSS
VL: LVLTQTPSSVSAAVGGTVTINCQSSQSVYKNSALSWYQQKPGQPPKLLIYGASTLASGVPSRFSGNGSGTQFTLTISGVQCADAATYYCTGAINDEIHAFGGGTEVVVR
notes: Rabbit monoclonal IgG; also called 130D2-1 monoclonal anti-LEM antibody; anti-LEM mAb
